US20090175880A1 (published 2009)

Columns and labels:
[1] = molecular target: T1, soluble fusion protein comprising a DEC-205 extracellular domain (comprising all ten lectin-binding domains) … (human, UniProt O60449 28-1666); test: SPR (Biacore 2000), DEC-205 fusion protein amine-coupled to CM5 chip, antibody flowed at 1.25-200 nM, 1:1 Langmuir fit, mean of two series
T1 construct: not shown: antibody Fc domain
From the text: Low levels of ligand were immobilised to limit any effects of mass transport of analyte on kinetic parameters, such that the RMAX observed was in the order of 200 RU.
The antigen-antibody association and dissociation kinetics were followed for approximately 300 to 600 seconds in each case.
Biacore's kinetics wizard was used in each case to derive kinetic parameters from the concentration series of analyte diluted in HBS-NP running buffer. The association and dissociation curves were fitted to a 1:1 Langmuir binding model using Biacore™ kinetics wizard software (Biacore AB) according to the manufacturer's guidelines. For each antibody, the figures shown are the mean of two separate series of experiments, using separately prepared sensor chips in each case, (where ka=rate constant of association, kd=rate constant of dissociation, KD=dissociation equilibrium constant (measure of affinity), KA=association equilibrium constant, Rmax=maximum SPR response signal).

[2] = molecular target: human DEC-205 expressed on the cell surface (human, UniProt O60449 28-1722); test: flow cytometry on CHO-S cells expressing human DEC-205, saturating antibody, PE anti-human IgG Fc
[3] = molecular target: T1, soluble fusion protein comprising a …; test: ELISA, plates coated with soluble DEC-205/Fc fusion protein, saturating antibody, AP anti-human IgG Fc, OD 405-650
[4] = molecular target: soluble fusion protein comprising a DEC-205 extracellular domain (comprising all ten lectin-binding domains) fused with an antibody Fc domain (human) (UniProt O60449); test: SPR (Biacore 2000), DEC-205 fusion protein amine-coupled to CM5 chip, antibody flowed at 1.25-200 nM, 1:1 Langmuir fit, mean of two series
soluble fusion protein comprising a DEC-205 extracellular domain (comprising all ten lectin-binding domains) fused with an antibody Fc domain (human), sequence (O60449 28-1666 K1321N/Y1391H): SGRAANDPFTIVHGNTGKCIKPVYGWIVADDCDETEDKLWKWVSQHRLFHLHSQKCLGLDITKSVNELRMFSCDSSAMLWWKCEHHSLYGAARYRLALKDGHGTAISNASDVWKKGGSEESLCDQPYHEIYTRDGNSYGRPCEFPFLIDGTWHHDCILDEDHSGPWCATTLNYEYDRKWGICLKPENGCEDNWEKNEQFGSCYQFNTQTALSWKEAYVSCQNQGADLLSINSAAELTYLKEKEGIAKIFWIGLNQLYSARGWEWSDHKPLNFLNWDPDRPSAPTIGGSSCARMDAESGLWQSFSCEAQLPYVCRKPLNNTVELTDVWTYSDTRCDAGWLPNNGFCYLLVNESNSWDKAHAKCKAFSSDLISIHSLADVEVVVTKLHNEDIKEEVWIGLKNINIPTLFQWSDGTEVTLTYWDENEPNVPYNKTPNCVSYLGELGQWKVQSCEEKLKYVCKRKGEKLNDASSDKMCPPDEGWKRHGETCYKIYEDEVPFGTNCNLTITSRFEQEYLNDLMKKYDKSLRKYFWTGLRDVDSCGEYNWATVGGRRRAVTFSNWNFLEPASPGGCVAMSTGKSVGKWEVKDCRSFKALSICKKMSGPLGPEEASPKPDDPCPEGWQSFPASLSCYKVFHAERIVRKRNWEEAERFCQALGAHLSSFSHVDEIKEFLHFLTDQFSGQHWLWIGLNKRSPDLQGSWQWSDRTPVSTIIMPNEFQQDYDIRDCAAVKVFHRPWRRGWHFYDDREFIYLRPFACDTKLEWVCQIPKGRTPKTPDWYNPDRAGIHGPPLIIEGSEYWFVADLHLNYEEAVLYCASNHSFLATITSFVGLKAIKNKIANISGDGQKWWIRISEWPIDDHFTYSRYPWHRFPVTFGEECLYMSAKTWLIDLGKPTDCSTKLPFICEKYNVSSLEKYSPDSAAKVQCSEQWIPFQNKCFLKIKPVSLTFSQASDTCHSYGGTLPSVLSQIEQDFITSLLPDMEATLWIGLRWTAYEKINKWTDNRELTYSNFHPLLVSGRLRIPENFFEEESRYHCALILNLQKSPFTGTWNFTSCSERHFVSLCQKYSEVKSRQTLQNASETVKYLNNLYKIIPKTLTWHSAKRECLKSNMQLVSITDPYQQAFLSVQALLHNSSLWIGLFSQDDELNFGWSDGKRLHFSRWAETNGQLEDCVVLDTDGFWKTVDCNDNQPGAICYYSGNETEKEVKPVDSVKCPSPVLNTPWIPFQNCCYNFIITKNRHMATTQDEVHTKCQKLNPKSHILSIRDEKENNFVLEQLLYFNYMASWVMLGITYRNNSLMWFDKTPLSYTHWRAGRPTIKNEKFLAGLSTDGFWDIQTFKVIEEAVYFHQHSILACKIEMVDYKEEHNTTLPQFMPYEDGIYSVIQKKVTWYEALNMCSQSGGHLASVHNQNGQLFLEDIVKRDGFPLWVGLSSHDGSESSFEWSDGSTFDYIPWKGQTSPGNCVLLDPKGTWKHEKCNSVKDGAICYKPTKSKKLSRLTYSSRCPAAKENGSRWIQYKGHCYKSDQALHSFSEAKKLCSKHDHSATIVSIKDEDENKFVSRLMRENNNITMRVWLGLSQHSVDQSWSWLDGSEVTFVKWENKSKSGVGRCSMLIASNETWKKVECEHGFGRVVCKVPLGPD

T1 sequence (O60449 28-1666 K1321N/Y1391H): as above
human DEC-205 expressed on the cell surface, sequence (O60449 28-1722 K1321N/Y1391H limits assumed): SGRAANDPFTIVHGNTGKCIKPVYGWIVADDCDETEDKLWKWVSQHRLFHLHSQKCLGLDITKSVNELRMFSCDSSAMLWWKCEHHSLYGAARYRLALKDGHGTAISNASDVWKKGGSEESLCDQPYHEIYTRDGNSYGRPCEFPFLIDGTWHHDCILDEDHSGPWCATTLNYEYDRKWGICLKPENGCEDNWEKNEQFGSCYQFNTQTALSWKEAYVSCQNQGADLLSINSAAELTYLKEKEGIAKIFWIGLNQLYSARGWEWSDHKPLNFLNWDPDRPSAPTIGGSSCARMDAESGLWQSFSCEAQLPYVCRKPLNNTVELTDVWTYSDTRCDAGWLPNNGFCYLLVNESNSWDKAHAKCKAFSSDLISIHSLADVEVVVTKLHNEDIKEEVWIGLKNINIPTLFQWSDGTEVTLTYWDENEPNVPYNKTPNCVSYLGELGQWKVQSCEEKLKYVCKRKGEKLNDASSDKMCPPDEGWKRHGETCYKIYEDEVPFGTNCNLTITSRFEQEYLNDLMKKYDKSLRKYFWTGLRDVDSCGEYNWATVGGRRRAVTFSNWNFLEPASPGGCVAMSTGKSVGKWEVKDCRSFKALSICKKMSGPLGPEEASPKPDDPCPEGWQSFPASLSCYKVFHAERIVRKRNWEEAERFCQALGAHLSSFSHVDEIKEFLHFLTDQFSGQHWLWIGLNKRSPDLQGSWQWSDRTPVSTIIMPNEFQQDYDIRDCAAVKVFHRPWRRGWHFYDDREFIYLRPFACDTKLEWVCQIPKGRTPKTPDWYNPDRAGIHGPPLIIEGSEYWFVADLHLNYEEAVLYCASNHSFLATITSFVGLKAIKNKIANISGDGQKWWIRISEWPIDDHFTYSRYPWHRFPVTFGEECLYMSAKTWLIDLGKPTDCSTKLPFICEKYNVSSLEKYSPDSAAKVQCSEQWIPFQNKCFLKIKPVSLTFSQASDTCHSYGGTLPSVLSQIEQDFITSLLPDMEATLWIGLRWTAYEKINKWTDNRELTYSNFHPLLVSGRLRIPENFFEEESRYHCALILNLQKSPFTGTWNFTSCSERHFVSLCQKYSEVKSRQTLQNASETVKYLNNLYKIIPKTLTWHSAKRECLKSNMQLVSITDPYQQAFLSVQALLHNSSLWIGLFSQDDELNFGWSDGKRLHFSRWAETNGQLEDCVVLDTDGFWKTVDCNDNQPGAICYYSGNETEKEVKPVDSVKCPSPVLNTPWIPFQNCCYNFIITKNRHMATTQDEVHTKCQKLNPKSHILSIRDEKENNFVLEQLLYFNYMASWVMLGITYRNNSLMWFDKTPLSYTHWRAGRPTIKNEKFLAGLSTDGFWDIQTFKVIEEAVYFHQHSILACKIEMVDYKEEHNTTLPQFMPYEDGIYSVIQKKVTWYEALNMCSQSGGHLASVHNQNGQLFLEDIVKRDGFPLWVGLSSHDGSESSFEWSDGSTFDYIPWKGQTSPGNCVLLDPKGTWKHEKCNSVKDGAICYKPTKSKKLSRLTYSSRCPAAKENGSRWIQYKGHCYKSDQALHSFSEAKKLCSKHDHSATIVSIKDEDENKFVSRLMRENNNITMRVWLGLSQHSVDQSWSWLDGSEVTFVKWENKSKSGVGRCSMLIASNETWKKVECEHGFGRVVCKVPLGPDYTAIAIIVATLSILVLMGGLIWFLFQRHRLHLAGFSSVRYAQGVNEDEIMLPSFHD

B1: 3D6-2F4 (antibody, V domains shown)
VH: QVQLVESGGGVVQPGRSLRLSCAASGFIFSIYGMHWVRQAPGKGLEWVAVIWYDGSNKYYADSVKGRFTISRDNSKNTLYLQMNSLRAEDTAVYYCARAPHFDYWGQGTLVTVSS
VL: DIQMTQSPSSLSASVGDRVTITCRASQGISSWLAWYQQKPEKAPKSLIYAASSLQSGVPSRFSGSGSGTDFTLTISSLQPEDFATYYCQQYNSYPYTFGQGTKLEIK
notes: Human IgG (kappa) from a hybridoma, protein A purified; also called mAb #5; HuMab 3D6-2F4
[1]
  Ka: 1.5e+10 M⁻¹
  Kd: 0.08 nM
  koff: 0.00012 s⁻¹
  kon: 1.8e+06 M⁻¹ s⁻¹

B2: 3D6-4C8 (antibody, V domains shown)
VH: QVQLVESGGGVVQPGRSLRLSCAASGFIFSIYGMHWVRQAPGKGLEWVAVIWYDGSNKYYADSVKGRFTISRDNSKNTLYLQMNSLRAEDTAVYYCARAPHFDYWGQGTLVTVSS
VL: AIQLTQSPSSLSASVGDRVTITCRASQGISSALAWYQQKPGKAPKLLIYDASSLESGVPSRFSGSGSGTDFTLTISSLQPEDFATYYCQQFNSYPLTFGGGTKVEIK
notes: Human IgG (kappa) from a hybridoma, protein A purified; also called HuMab 3D6-4C8
[2]
  binding result: binds
[3]
  binding result: binds

B3: 2D3-1F5-2A9 (antibody, part only; not given: light chain, V domains shown, part only)
VH: EVQLVQSGGGLVHPGGSLRLSCAGSGFTFSNYAMHWVRQAPGKGLEWVSTIGTGGGTPYADSVKGRFTISRDNAKNSLYLQMNSLRAEDMAVYYCALSAFDVWGQGTMVTVSSASTKGPSVFPLA
[4]
  Ka: 1.5e+10 M⁻¹
  Kd: 0.068 nM
  koff: 2.2e-05 s⁻¹
  kon: 330000 M⁻¹ s⁻¹

B4: 3C7-3A3 (antibody, V domains shown)
VH: QVQLVESGGGVVQPGRSLRLSCAASGFTFSSYNMHWVRQAPGKGLEWVAFIWYDGSNKYYGDSVKGRFTISRDNSKNTLYLQMNSLRAEDTAVYYCAREELGIGWYFDLWGRGTLVTVSS
VL: EIVLTQSPATLSLSPGERATLSCRASQSVSSYLAWYQQKPGQAPRLLIYDASNRATGIPARFSGSGSGTDFTLTISSLEPEDFAVYYCQQRRTFGQGTKVEIK
notes: Human IgG (kappa) from a hybridoma, protein A purified; also called mAb #3; HuMab 3C7-3A3
[1]
  Ka: 5.2e+08 M⁻¹
  Kd: 5.6 nM
  koff: 0.00076 s⁻¹
  kon: 170000 M⁻¹ s⁻¹

B5: 5A8-1F1 (antibody, V domains shown)
VH: QVQLVESGGGVVQPGRSLRLSCAASGFTFSTYGMHWVRQAPGKGLEWVAIIWYDGGNKYYADSVKGRFTISRDNSKNTLYLQMNSLRAEDTAVYYCARDFYWYFDLWGRGTLVTVSS
VL: EIVLTQSPATLSLSPGERATLSCRASQSVSSYLAWYQQKPGQAPRLLIYDASNRATGIPARFSGSGSGTDFTLTISSLEPEDFAVYYCQQRRTFGQGTKVEIK
notes: Human IgG (kappa) from a hybridoma, protein A purified; also called mAb #2; HuMab 5A8-1F1
[1]
  Ka: 2.1e+09 M⁻¹
  Kd: 1.5 nM
  koff: 0.0002 s⁻¹
  kon: 360000 M⁻¹ s⁻¹

B6: 3G9-2D2 (antibody, V domains shown)
VH: QVQLVESGGGVVQPGRSLRLSCAASGFTFSNYGMYWVRQAPGKGLEWVAVIWYDGSNKYYADSVKGRFTISRDNSKNTLYLQMNSLRAEDTAVYYCARDLWGWYFDYWGQGTLVTVSS
VL: EIVLTQSPATLSLSPGERATLSCRASQSVSSYLAWYQQKPGQAPRLLIYDASNRATGIPARFSGSGSGTDFTLTISSLEPEDFAVYYCQQRRNWPLTFGGGTKVEIK
notes: Human IgG (kappa) from a hybridoma, protein A purified; also called mAb #8; HuMab 3G9-2D2
[1]
  Ka: 4.7e+09 M⁻¹
  Kd: 0.24 nM
  koff: 0.00019 s⁻¹
  kon: 900000 M⁻¹ s⁻¹
